Assay results from patent US20050004025A1.

Target: recombinant human a7 nicotinic acetylcholine receptor expressed in Xenopus oocytes (human) (UniProt P36544)
Test: cell-based or functional assay

Chain of recombinant human a7 nicotinic acetylcholine receptor expressed in Xenopus oocytes (human) (P36544 23-502): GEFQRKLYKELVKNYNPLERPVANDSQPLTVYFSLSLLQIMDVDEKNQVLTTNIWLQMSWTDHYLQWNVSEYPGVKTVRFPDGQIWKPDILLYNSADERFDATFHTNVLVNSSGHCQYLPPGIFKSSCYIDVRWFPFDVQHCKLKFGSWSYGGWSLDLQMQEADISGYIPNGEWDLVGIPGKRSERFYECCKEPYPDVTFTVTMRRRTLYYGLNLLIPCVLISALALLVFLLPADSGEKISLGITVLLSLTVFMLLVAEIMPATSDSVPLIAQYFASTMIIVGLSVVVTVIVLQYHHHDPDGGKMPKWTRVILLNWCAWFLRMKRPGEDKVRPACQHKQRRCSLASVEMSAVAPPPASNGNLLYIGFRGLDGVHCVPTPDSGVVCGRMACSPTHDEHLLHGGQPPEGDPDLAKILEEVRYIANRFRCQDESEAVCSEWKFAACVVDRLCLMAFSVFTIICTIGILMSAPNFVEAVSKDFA

- EC50 of acetylcholine on the receptor after 2.5 min exposure to 200 pM SLURP-1 (FIG. 5C; control 178 µM; n=6 for each data point): 68 µM
- EC50 of acetylcholine on the receptor after SLURP-1 treatment (FIG. 5B; control 175 µM): 68 µM
- increase of the amplitude of acetylcholine-evoked macroscopic currents at 200 pM SLURP-1, compared with control (two-electrode voltage clamp, oocytes; n=6): 421%
- increase of the amplitude of acetylcholine-evoked macroscopic currents at 20 nM SLURP-1, compared with control (two-electrode voltage clamp, oocytes; n=4): 1210%
Substance: recombinant SLURP-1 with C-terminal myc tag and His6 tag (highly purified SLURP-1) (from UniProt P55000 23-103) (ligand)
